Reference: patent US20250000946A1 (WUXI BIOLOGICS IRELAND, published 2025)
Read-outs that look alike come from different tables or passages of the source.

Tests used:
[1] = target: T1, Human IL-2Rβ/γ (intermediate affinity IL-2 receptor) (human, UniProt P14784 27-551; P31785 23-369); test: FACS, HH cells
T1 construct: whole, on cells; also called IL-2Rβ/γc; IL-2Rβ (CD122) and γ (CD132)
T1 sequence (looked up) 1: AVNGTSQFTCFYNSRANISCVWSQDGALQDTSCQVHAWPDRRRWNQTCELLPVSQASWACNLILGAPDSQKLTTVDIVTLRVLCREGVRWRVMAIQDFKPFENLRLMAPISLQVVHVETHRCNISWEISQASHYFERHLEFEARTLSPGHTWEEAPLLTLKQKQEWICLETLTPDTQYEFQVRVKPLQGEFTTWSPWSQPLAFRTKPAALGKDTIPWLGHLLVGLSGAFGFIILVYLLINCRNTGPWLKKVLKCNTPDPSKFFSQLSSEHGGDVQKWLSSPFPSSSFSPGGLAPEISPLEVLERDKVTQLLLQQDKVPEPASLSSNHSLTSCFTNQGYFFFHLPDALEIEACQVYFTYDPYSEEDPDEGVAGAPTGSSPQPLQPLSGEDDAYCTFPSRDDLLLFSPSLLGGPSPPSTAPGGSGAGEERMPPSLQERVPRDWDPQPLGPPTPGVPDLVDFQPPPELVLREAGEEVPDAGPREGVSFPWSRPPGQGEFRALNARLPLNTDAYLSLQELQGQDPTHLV
T1 sequence (looked up) 2: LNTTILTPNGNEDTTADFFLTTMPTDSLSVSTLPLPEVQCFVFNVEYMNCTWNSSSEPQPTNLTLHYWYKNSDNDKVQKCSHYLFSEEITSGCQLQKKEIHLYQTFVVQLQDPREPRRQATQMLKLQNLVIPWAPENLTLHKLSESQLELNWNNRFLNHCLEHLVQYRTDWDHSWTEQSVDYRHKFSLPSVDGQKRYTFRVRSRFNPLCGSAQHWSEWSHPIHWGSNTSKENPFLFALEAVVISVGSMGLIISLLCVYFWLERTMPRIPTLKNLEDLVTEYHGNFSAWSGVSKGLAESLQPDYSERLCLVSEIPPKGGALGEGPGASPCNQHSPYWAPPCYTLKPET
How it was run: (§1)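 HH (IL-2Rβ/γ), MJ20 and NK92 (IL-2Rα/β/γ) cells incubated with IL-2/Fc fusion proteins at indicated concentrations, 30 min at 4° C to avoid internalization. Bound protein detected with PE-anti-human Fc, 30 min at 4° C; median fluorescence intensity read by FACS.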

[2] = target: T2, W369-hPro2.ECD.His, IL2Rβ ECD (human, UniProt P14784 27-239); test: SPR Biacore 8K; set-up for IL-2Rβ not described
T2 construct: Entry includes linker and C-terminal 6xHis tag; also called CD122
T2 sequence: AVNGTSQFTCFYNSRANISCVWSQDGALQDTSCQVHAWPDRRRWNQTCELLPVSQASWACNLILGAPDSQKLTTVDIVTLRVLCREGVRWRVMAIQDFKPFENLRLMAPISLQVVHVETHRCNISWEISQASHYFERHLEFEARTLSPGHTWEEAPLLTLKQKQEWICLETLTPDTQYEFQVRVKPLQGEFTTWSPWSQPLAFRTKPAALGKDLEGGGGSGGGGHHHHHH

[3] = target: T1, Human IL-2Rβ/γ (intermediate affinity …); test: FACS, HH cells; EC50 fold vs T2U0.E44-1
Protocol: (§2) Human cutaneous T cell lymphoma HH cells, malignant non-Hodgkin's lymphoma NK92 cells and cutaneous T cell lymphoma MJ20 cells were used for binding assay. They both constitutively express IL-2Rβ (CD122) and […] (CD132), and NK92 and MJ20 also expresses IL-2Rα (CD25). HH, NK92 and MJ20 cells were cultured following ATCC guidance, then transferred to a 96-plate for binding analysis. Cells were incubated with IL-2/Fc fusion proteins at the indicated concentrations for 30 min at 4° C. to avoid internalization. Binding was detected by 2nd antibody of PE-anti-human Fc at 4° C. for another 30 min. The median fluorescence intensity (MFI) on HH and NK92 cells was measured using FACS.
(§3) IL-2 variants of T2U0.E44-6 and T2U0.E44-26 were used to construct bivalent variants W3XX115-T2.Z20-1.uIgG4V322 and W3XX115-T2.Z20-2.uIgG4V322 respectively.

[4] = target: T1, Human IL-2Rβ/γ (intermediate affinity …); test: cell-based or functional assay
[5] = target: T1, Human IL-2Rβ/γ (intermediate affinity …); test: FACS, HH cells; remark: listed apart in the source
Protocol: as §2, §3

[6] = target: T3, W369-hPro1.ECD.His, IL-2Rγ ECD (human, UniProt P31785 23-254); test: SPR Biacore 8K; variant pre-mixed 1:1 with IL-2Rβ ECD-His, injected over captured IL-2Rγ ECD-His
T3 construct: Entry includes linker and C-terminal 6xHis tag; also called IL-2Rγc; CD132
T3 sequence: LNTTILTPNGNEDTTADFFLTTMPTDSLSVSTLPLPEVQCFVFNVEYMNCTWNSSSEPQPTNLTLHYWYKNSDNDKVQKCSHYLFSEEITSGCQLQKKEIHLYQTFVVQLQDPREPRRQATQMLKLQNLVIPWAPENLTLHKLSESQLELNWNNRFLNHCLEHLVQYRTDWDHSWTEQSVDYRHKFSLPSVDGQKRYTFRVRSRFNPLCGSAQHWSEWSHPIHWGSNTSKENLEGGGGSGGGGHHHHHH
Protocol: (§4) IL-2 variants binding affinity to IL-2 receptor were detected by SPR using Biacore 8K. For IL-2Rα binding assay, each variant was captured on anti-human Fc immobilized CM5 sensor chip (cytiva). W3XX115-hPro1.ECD.His at different concentrations were injected over the sensor chip at a flow rate of 30 uL/min for an association phase of 60 s, followed by 90 s dissociation. The chip was then regenerated by 10 mM Glycine-HCl pH1.5 after each binding cycle. For IL-2Rγ binding assay, IL-2 variants were mixed with W369-hPro2.ECD.His as 1:1 before assay, were detected by SPR using Biacore 8K. W3XX115-hPro1.ECD.His was captured on anti-His immobilized CM5 sensor chip (cytiva). The mixture were injected over the sensor chip as described above. The sensorgrams of blank surface and buffer channel were subtracted from the test sensorgrams. The experimental data was fitted by steady state affinity model. Molecular weight of W3XX115-hPro1.ECD.His or W369-hPro1.ECD.His was used to calculate the molar concentration of analyte.
(§5) For T3U0.E44-1 and T2U0.E44-33, no binding to IL-2Rα was detected.

[7] = target: T1, Human IL-2Rβ/γ (intermediate affinity …); test: FACS, HH cells; EC50 fold vs T2U0.E44-1; remark: listed apart in the source
How it was run: as §1

[8] = target: T4, W3XX115-hPro1.ECD.His, IL2Rα ECD (Homo sapiens (Human), UniProt P01589 22-213); test: SPR Biacore 8K; variant captured on anti-human Fc chip, IL-2Rα ECD-His injected
T4 construct: Entry includes the C-terminal 6xHis tag; also called CD25
T4 sequence: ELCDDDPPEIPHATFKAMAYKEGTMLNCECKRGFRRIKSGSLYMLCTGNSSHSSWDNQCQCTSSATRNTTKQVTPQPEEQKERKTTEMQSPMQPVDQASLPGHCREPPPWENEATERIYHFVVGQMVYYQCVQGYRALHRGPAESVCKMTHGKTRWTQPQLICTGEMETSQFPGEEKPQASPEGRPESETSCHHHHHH
Protocol: as §4, §5

[9] = target: T1, Human IL-2Rβ/γ (intermediate affinity …); test: cell-based or functional assay; remark: listed apart in the source

B1: W3XX115-T3U0.E44-1.uIgG4V322 (Fc fusion)
chain: APTSSSTKKTQLQLEHLLLDLQMILNGINNYKNPKLTRMLTAKFAMPKKATELKHLQCLEEELKPLEEVLNGAQSKNFHLRPRDLISNINVIVLELKGSETTFMCEYADETATIVEFLNRWITFCQSIISTLTESKYGPPCPPCPAPEAAGGPSVFLFPPKPKDTLMISRTPEVTCVVVDVSQEDPEVQFNWYVDGVEVHNAKTKPREEQFNSTYRVVSVLTVLHQDWLNGKEYKCKVSNKGLPSSIEKTISKAKGQPREPQVYTLPPCQEEMTKNQVSLWCLVKGFYPSDIAVEWESNGQPENNYKTTPPVLDSDGSFFLYSRLTVDKSRWQEGNVFSCSVMHEALHNHYTQKSLSLSLG
heavy: EIQLQQSGPELVKPGASVKVSCKASGYSFTDYNMYWVKQSHGESLEWIGYIDPYNGGTRYNQKFKGKATLTVDKSSSTAFMHLNSLTSEDSAVYYCARNGHWDGAWFAYWGQGTLVTVSAASTKGPSVFPLAPCSRSTSESTAALGCLVKDYFPEPVTVSWNSGALTSGVHTFPAVLQSSGLYSLSSVVTVPSSSLGTKTYTCNVDHKPSNTKVDKRVESKYGPPCPPCPAPEAAGGPSVFLFPPKPKDTLMISRTPEVTCVVVDVSQEDPEVQFNWYVDGVEVHNAKTKPREEQFNSTYRVVSVLTVLHQDWLNGKEYKCKVSNKGLPSSIEKTISKAKGQPREPQVCTLPPSQEEMTKNQVSLSCAVKGFYPSDIAVEWESNGQPENNYKTTPPVLDSDGSFFLVSRLTVDKSRWQEGNVFSCSVMHEALHNHYTQKSLSLSLG
light: DIQMNQSPSSLSASLGDTITITCHASQNINVWLSWYQQKPGNIPKLLIYKASNLHTGVPSRFSGSRSGTGFTLTISSLQPEDIATYYCHQGQSYPFTFGSGTKLEIKRTVAAPSVFIFPPSDEQLKSGTASVVCLLNNFYPREAKVQWKVDNALQSGNSQESVTEQDSKDSTYSLSSTLTLSKADYEKHKVYACEVTHQGLSSPVTKSFNRGEC
notes: E44 format, IgG4 FALA; also called non-α IL-2
EC50 [1]: 64.1 nM
Kd [2]: 2260 nM
Affinity reduction [3]: 0.9 fold
Potency EC50, STAT5 phosphorylation in CD8+ T (column headed Human Treg) [4]: 11.7 nM
Potency reduction, CD8+ T (column headed Human Treg) [4]: 1 fold
EC50 [5]: 29.3 nM
binding result [6]: binds
Affinity reduction [7]: 1.3 fold
binding result [8]: no binding
Human CD8+ T Potency EC50 (STAT5 phosphorylation) [9]: 7.87 nM
Human CD8+ T Potency reduction [9]: 2.2 fold
